Experiments:
[1] = target: T1, vIRF-1 DBD (vIRF-1 88-196) (Kaposi's sarcoma-associated herpesvirus …, UniProt F5HF68 88-196); test: thermal stability shift assay
[2] = target: T1, vIRF-1 DBD (vIRF-1 88-196); test: X-ray crystallography

T1 sequence (F5HF68 88-196): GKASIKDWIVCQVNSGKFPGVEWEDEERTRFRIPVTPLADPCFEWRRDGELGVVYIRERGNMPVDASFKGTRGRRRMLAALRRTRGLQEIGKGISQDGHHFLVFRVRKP

B1: N25 (dsDNA)
DNA 1: TATACAAACCCCTTACCAATATCATA
DNA 2: ATATGATATTGGTAAGGGGTTTGTAT
B1: binds [1].

B2: v1 (dsDNA)
DNA 1: AGGCACGCGTCCAGGCAACCGGG
DNA 2: TCCCGGTTGCCTGGACGCGTGCC
B2: binds [1].

B3: v2 (dsDNA)
DNA 1: ATAACTGGGAGGCGACGCTGGCG
DNA 2: TCGCCAGCGTCGCCTCCCAGTTA
B3: binds [1].

B4: S0_x2 (dsDNA)
DNA 1: AGCGTCGAGACGCGCGTCGAGACGC
DNA 2: TGCGTCTCGACGCGCGTCTCGACGC
B4: binds [1].

B5: dsS0mm (dsDNA)
DNA 1: GCGTCGAGACGC
DNA 2: GCGTCGAGACGC
B5: binds [2].

B6: PRDIII-I (dsDNA)
DNA 1: GAGGAAAACTGAAAGGGAACTGAAA
DNA 2: TTTCAGTTCCCTTTCAGTTTTCCTC
B6: binds [1].
